Assays:
Assay in all cases: ELISA
[1] = target: H1 HA A/Texas/36/1991 (H1N1), recombinant soluble trimer (influenza A virus)
[2] = target: H3 HA A/Texas/50/2012, recombinant soluble trimer (influenza A virus)
[3] = target: H1 HA A/Solomon Islands/03/2006 (H1N1), recombinant soluble trimer (influenza A virus)

Measured: EC50 relative to wild type rFluA-20

B1: rFluA-20 heavy chain mutant Y100aA (antibody, V domains shown)
VH: QVQLQESGPGLVKPSETLSLTCSVSGVSVTSDIYYWTWIRQPPGKGLEWIGYIFYNGDTNYNPSLKSRVTMSIDTSKNEFSLRLTSVTAADTAVYFCARGTEDLGACSSGSCPNHWGQGTLVTVSS
VL: DIQMTQSPSSLSASIGDRVTITCRPSQNIRSFLNWFQHKPGKAPKLLIYAASNLQSGVPSRFSGSGSGTEFTLTIRSLQPEDFATYYCQQSYNTPPTFGQGTKVEIK
> 100 fold: all assays above
